Laboratory results as given in patent US20080274134A1.

biological target: Protein G on µMACS Protein G microbeads (Group G Streptococci) (UniProt P06654); assay: immobilisation on µMACS Protein G microbeads
UniProt P06654, sequence (P06654 228-352): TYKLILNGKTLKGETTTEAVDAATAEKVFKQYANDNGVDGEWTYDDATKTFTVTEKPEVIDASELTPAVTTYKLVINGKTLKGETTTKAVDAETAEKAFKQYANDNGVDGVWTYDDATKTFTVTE

Substance	capacity of the microbeads (µg per ml of microbead suspension)
human monoclonal antibody 2G12	60
human monoclonal antibody 2F5	95
human monoclonal antibody IgG1b12	55
